The source of these data is PMC8813930, “The toposiomerase IIIalpha-RMI1-RMI2 complex orients human Bloom’s syndrome helicase for efficient disruption of D-loops”.

For series [1], the target named is T1, BLM-dWH (Homo sapiens, UniProt P54132 642-1077). Nature of the series: competition fluorescence anisotropy; vs ss54-FLU; 5 mM MgCl2; 50 mM Tris-HCl pH 7.5, 50 mM NaCl, 1 mM DTT, 5 mM MgCl2, 50 µg/mL BSA, 25 °C; 10 nM labeled DNA in direct titrations. As to conditions: protein: recombinant, label: 5'-Cy3 on D3.
Series [2] deals with T2, BLMFL (Homo sapiens, UniProt P54132 1-1417). The series is described as above. As to conditions: protein: recombinant, label: 5'-Cy3 on D3.
Series [3] concerns the target T3, BLMCR (Homo sapiens, UniProt P54132 642-1290). The description is as above. The settings on record: protein: recombinant, label: 5'-Cy3 on D3.
Series [4] addresses T4, BLM-dH (Homo sapiens, UniProt P54132 642-1191). The description is as above. The settings on record: protein: recombinant, label: 5'-Cy3 on D3.
For series [5], the target named is TOPOIIIalpha (TRR complex);RMI1 (TRR complex);RMI2 (TRR complex) (Homo sapiens;Homo sapiens;Homo sapiens, UniProt Q13472;Q9H9A7;Q96E14 1-1001;1-625;1-147, ||). Kind of series: fluorescence anisotropy; 5 mM MgCl2; 50 mM Tris-HCl pH 7.5, 50 mM NaCl, 1 mM DTT, 5 mM MgCl2, 50 µg/mL BSA, 25 °C; 10 nM labeled DNA in direct titrations. As to conditions: protein: recombinant;recombinant;recombinant, tags: His;;, copies: 1;1;1, label: fluorescein on D3 (in place of Cy3).

The target of series [6] is T1, BLM-dWH. Kind of series: fluorescence anisotropy; no ATP; 5 mM MgCl2; 50 mM Tris-HCl pH 7.5, 50 mM NaCl, 1 mM DTT, 5 mM MgCl2, 50 µg/mL BSA, 25 °C; 10 nM labeled DNA in direct titrations. As to conditions: protein: recombinant; label: 3'-fluorescein; single strand.
Series [7] concerns the target T2, BLMFL. Described as above. As to conditions: protein: recombinant; label: 3'-fluorescein; single strand.
Series [8] concerns the target T3, BLMCR. Described as above. As to conditions: protein: recombinant; label: 3'-fluorescein; single strand.
The target in series [9] is T4, BLM-dH. Described as above. As to conditions: protein: recombinant; label: 3'-fluorescein; single strand.
[10] abbreviates: three-stranded D-loop-like structure (D1+D2+D3), D3 3' part invades and pairs with D1.
Setting [11] is: 20 bp duplex, 3' overhang 21 nt on D3.
Setting [12] is: four-stranded D-loop-like structure (D1+D2+D3+D4), D3 3' part pairs with D1, 5' part with D4.

Where only a bound is given, the exact number is not on record here.

T4 sequence (P54132 642-1191): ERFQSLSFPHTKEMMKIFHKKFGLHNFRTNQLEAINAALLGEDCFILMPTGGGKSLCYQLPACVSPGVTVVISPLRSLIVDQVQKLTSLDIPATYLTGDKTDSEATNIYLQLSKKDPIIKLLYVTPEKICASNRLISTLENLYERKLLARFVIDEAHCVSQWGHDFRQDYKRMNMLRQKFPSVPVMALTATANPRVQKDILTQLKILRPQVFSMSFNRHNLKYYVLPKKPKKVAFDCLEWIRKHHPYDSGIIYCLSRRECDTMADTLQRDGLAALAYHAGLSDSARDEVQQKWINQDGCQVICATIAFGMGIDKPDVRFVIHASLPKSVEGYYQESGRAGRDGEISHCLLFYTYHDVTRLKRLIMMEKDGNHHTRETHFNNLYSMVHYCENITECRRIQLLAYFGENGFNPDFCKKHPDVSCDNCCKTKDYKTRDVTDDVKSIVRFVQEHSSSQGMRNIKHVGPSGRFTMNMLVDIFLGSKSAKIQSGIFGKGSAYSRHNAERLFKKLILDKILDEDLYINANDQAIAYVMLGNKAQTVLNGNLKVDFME
T3 sequence (P54132 642-1290): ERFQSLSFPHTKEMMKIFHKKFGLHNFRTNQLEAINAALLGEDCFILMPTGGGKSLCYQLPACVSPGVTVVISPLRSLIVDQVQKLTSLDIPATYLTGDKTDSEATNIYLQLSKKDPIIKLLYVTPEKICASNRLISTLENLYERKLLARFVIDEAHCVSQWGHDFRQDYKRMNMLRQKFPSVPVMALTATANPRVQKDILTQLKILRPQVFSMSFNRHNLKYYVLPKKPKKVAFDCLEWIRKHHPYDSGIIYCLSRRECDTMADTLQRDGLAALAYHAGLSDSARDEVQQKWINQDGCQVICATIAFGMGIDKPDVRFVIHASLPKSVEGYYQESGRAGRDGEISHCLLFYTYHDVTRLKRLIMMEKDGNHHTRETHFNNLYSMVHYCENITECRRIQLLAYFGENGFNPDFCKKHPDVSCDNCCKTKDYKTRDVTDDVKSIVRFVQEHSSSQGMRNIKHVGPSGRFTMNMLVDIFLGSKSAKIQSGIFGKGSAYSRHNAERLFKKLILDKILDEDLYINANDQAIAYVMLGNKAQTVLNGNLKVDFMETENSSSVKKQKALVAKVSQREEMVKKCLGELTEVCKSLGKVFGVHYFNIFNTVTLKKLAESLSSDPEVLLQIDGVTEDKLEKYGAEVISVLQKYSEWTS
T1 sequence (P54132 642-1077): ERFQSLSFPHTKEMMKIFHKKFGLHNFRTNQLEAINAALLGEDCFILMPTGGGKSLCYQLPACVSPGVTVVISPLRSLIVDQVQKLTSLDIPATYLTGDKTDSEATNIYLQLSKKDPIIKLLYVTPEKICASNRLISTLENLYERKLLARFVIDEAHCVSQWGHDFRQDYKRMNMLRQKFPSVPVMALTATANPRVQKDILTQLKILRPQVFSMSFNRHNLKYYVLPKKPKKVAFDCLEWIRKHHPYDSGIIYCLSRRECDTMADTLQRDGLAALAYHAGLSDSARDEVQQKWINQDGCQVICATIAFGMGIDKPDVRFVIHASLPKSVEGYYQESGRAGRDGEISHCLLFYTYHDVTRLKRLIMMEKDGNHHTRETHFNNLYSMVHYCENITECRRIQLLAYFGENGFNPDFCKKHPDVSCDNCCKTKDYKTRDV
T2 sequence (P54132 whole entry): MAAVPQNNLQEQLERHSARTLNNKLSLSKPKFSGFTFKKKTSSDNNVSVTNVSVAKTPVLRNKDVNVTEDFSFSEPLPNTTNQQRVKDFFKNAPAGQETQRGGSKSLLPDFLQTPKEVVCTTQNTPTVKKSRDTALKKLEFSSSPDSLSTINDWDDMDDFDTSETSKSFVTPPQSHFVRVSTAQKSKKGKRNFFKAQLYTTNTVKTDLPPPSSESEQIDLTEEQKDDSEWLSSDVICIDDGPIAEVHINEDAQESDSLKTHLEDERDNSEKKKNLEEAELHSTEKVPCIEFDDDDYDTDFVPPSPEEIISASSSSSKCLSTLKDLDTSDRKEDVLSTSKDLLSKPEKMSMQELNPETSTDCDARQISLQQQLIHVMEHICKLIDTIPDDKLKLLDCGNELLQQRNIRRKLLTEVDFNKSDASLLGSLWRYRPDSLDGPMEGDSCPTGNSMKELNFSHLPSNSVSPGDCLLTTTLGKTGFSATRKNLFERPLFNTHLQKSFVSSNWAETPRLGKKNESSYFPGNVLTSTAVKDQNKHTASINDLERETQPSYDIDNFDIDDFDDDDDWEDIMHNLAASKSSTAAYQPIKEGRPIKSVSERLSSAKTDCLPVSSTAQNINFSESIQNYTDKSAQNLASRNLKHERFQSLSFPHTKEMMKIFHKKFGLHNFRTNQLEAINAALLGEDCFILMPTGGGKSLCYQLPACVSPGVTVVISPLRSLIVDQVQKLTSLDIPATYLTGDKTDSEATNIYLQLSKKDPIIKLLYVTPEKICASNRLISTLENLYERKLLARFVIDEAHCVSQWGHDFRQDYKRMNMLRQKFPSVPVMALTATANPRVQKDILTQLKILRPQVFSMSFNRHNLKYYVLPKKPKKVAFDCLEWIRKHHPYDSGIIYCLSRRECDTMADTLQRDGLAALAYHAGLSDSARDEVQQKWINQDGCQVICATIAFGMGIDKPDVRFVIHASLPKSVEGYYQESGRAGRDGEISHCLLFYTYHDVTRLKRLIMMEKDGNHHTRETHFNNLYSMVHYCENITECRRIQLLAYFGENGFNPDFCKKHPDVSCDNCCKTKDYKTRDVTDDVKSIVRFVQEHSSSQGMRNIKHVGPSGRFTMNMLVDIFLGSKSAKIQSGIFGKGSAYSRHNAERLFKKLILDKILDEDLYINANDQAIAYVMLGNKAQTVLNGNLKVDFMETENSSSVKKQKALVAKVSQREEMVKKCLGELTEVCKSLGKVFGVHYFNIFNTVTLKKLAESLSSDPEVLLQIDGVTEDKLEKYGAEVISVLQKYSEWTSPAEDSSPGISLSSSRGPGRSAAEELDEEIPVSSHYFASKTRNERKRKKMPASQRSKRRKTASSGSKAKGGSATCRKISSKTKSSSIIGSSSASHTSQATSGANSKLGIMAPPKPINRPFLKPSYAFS
TOPOIIIalpha (TRR complex);RMI1 (TRR complex);RMI2 (TRR complex), sequence (Q13472 whole entry, chain 1 of 3): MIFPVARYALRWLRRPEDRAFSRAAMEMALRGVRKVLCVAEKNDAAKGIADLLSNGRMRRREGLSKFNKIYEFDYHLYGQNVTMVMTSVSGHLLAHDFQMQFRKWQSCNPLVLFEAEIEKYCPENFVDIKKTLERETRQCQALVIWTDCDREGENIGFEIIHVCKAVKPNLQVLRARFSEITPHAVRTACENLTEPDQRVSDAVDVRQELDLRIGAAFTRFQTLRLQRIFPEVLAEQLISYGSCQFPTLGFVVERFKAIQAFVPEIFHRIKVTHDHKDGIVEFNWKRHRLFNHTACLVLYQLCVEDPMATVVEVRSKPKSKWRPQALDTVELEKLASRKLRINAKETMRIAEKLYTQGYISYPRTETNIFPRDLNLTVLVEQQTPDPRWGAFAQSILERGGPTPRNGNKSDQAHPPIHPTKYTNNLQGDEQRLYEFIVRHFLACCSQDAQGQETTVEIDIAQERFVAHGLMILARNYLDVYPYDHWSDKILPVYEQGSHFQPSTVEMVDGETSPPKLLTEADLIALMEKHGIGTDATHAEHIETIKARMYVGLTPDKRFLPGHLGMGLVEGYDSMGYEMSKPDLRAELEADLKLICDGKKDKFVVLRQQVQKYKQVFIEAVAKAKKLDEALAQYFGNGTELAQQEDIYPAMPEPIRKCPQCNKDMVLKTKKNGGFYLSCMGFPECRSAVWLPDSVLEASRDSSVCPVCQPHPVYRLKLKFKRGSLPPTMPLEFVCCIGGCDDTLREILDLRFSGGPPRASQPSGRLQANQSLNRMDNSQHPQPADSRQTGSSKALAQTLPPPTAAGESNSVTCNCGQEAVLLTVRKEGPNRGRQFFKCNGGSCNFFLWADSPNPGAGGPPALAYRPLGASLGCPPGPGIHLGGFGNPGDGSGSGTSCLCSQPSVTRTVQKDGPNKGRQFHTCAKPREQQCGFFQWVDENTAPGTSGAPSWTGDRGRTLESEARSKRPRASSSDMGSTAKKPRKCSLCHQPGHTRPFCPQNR
TOPOIIIalpha (TRR complex);RMI1 (TRR complex);RMI2 (TRR complex), sequence (Q9H9A7 whole entry, chain 2 of 3): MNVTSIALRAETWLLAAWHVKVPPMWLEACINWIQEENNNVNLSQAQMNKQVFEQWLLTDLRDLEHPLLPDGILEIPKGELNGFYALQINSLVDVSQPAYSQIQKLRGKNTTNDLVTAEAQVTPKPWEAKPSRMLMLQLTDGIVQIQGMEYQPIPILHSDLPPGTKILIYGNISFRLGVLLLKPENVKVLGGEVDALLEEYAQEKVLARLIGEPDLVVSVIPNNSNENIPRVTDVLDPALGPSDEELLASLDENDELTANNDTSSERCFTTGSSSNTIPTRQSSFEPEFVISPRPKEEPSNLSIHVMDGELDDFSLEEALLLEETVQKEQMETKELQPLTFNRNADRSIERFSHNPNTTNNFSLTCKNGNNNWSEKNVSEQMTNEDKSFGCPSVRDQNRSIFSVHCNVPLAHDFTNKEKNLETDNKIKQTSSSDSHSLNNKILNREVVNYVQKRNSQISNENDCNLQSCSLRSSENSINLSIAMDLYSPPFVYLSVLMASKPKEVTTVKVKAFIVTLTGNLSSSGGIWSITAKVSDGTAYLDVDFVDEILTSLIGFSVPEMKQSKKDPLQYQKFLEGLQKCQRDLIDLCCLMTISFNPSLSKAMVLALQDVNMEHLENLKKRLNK
TOPOIIIalpha (TRR complex);RMI1 (TRR complex);RMI2 (TRR complex), sequence (Q96E14 whole entry, chain 3 of 3): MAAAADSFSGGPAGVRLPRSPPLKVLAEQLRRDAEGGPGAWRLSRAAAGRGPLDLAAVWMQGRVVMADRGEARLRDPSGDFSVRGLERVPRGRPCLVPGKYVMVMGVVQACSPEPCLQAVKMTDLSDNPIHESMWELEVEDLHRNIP

B1: DL3 (Cy3) (structured_DNA)
DNA 1: GACGCTGCCGAATTCTACCAGTGCCTTGCTAGGACATCTTTGCCCACCTGCAGGTTCACCC
DNA 2: GGGTGAACCTGCAGGTGGGCGGCTGCTCATCGTAGGTTAGTTGGTAGAATTCGGCAGCGTC
DNA 3: TAAGAGCAAGATGTTCTATAAAAGATGTCCTAGCAAGGCAC
On to B1, for which the Kd with BLM-dWH [1] (setting [10]) is 56 ± 7 nM; with BLMFL [2] (setting [10]) it was 1.2 ± 0.8 nM; with BLMCR [3] (setting [10]), below 1 nM; in the series with BLM-dH [4] (setting [10]), below 1 nM.

B2: 3T (Cy3) (dsDNA)
DNA 1: B1 DNA 3
DNA 2: TATAGAACATCTTGCTCTTA
As to B2, the dissociation constant Kd with BLM-dWH [1] (setting [11]) was determined as 430 ± 70 nM; with BLMFL [2] (setting [11]) it was 10 ± 3 nM; with BLMCR [3] (setting [11]), 24 ± 2 nM; in the series with BLM-dH [4] (setting [11]), 39 ± 3 nM.

B3: DL4 (Cy3) (structured_DNA)
DNA 1: B1 DNA 1
DNA 2: B1 DNA 2
DNA 3: B1 DNA 3
DNA 4: TATAGAACATCTTGCTCTTA
Consider B3, for which the Kd was 56 ± 13 nM with BLM-dWH [1] (setting [12]), 2.3 ± 1.3 nM in the series with BLMFL [2] (setting [12]), below 1 nM with BLMCR [3] (setting [12]) and below 1 nM in the series with BLM-dH [4] (setting [12]).

B4: DL4 (fluorescein) (structured_DNA)
DNA 1: B1 DNA 1
DNA 2: B1 DNA 2
DNA 3: B1 DNA 3
DNA 4: TATAGAACATCTTGCTCTTA
With B4, the equilibrium dissociation constant (Kd) in series [5] (four-stranded D-loop-like structure (D1+D2+D3+D4)) is 488 ± 70 nM.

B5: DL3 (fluorescein) (structured_DNA)
DNA 1: B1 DNA 1
DNA 2: B1 DNA 2
DNA 3: B1 DNA 3
In the case of B5, the dissociation constant Kd in [5] (three-stranded D-loop-like structure (D1+D2+D3)) was determined as 13 ± 1 nM.

B6: ss54-FLU (ssDNA)
DNA: TCCTTTTGATAAGAGGTCATTTTTGCGGATGGCTTAGAGCTTAATTGCGCAACG
Turning to B6, the Kd with BLM-dWH [6] was found to be 520 ± 30 nM; with BLMFL [7] it was 61 ± 10 nM; with BLMCR [8], 74 ± 14 nM; in the series with BLM-dH [9], 61 ± 16 nM.
